Reference: publication PMC9098913, “In vitro reconstitution of Escherichia coli divisome activation” (Nature Communications, 2022)
Substitutions are numbered along the chain they refer to. Where two headings read alike, the source gives them in different places.

T1: FtsA R286W (E. coli, UniProt P0ABH0 1-420, R286W, Cy3 or Cy5 at the N-terminus in the labelled form (labelled CLEPTGG peptide conjugated to the 5xGly tag by sortagging); unlabelled protein also used)
T1 construct: also called Cy5-FtsA R286W; hyperactive mutant; source: E. coli BL21, purified (as the wild type: Strep-Tactin, SUMO tag cleaved with Ulp1, SEC); not shown: TwinStrep-SUMO, N-terminal, cleaved; 5xGlycine tag, N-terminal, kept
T1 sequence (looked up): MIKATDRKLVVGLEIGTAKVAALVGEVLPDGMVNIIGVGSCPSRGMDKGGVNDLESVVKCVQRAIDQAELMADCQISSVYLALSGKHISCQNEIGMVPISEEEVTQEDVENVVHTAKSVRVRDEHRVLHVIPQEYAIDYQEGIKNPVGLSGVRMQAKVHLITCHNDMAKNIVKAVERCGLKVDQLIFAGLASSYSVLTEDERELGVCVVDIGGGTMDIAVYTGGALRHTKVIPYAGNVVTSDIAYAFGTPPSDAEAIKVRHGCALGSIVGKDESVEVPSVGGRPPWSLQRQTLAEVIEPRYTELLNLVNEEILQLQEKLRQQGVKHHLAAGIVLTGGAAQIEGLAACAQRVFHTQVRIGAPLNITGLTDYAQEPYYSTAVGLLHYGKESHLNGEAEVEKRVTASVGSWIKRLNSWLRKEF

T2: FtsA WT (E. coli, UniProt P0ABH0 1-420, Cy3 or Cy5 at the N-terminus in the labelled form (CLEPTGG peptide labelled with sulfo-Cyanine 3- or 5-maleimide, conjugated to the 5xGly tag by sortagging; degree of labelling 65-70%); unlabelled …)
T2 construct: FtsA, E. coli, cloned into vector pMAR19; called full-length in the results; also called wild-type FtsA; Cy5-FtsA WT; source: E. coli BL21, purified (Strep-Tactin, SUMO tag cleaved with Ulp1, SEC); not shown: TwinStrep-SUMO, N-terminal, cleaved; 5xGlycine tag, N-terminal, kept
T2 sequence (looked up): T1 sequence (looked up) with W286R

T3: FtsA R286W (1-405)-6xHis (E. coli, UniProt P0ABH0 1-405, R286W, Cy3 or Cy5 at the N-terminus in the labelled form (sortagging as for native FtsA))
T3 construct: FtsA, E. coli, residues 1-405 with R286W; the C-terminal amphipathic helix replaced by a 6xHistidine tag; plasmid pNB5; Attached to membranes through Tris-NTA lipids by its His tag; also called FtsA R286W-His6; R286W-His6; source: E. coli BL21, purified (as native FtsA); not shown: TwinStrep-SUMO, N-terminal, cleaved; 5xGlycine tag, N-terminal, kept; His6, C-terminal, kept
T3 sequence (looked up): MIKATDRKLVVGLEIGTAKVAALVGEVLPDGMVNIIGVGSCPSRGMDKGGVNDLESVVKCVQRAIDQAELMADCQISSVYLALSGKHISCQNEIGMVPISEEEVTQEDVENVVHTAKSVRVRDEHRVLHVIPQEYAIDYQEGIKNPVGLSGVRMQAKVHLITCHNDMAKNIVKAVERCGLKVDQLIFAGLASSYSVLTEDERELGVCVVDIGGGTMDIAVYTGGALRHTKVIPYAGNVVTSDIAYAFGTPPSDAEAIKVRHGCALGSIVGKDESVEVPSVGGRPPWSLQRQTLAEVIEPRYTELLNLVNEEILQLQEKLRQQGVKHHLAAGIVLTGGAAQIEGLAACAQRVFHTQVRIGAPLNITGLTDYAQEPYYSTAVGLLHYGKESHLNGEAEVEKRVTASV

T4: FtsA WT (1-405)-6xHis (E. coli, UniProt P0ABH0 1-405, Cy3 or Cy5 at the N-terminus in the labelled form (sortagging as for native FtsA))
T4 construct: FtsA, E. coli, residues 1-405; plasmid pNB4; Attached to membranes through Tris-NTA lipids by its His tag; also called FtsA-His6; FtsA WT-His6; source: E. coli BL21, purified (as native FtsA); not shown: TwinStrep-SUMO, N-terminal, cleaved; 5xGlycine tag, N-terminal, kept; His6, C-terminal, kept
T4 sequence (looked up): T3 sequence (looked up) with W286R

B1: FtsZ (natural protein, E. coli, UniProt P0A9A6 1-383, looked up)
chain: MFEPMELTNDAVIKVIGVGGGGGNAVEHMVRERIEGVEFFAVNTDAQALRKTAVGQTIQIGSGITKGLGAGANPEVGRNAADEDRDALRAALEGADMVFIAAGMGGGTGTGAAPVVAEVAKDLGILTVAVVTKPFNFEGKKRMAFAEQGITELSKHVDSLITIPNDKLLKVLGRGISLLDAFGAANDVLKGAVQGIAELITRPGLMNVDFADVRTVMSEMGYAMMGSGVASGEDRAEEAAEMAISSPLLEDIDLSGARGVLVNITAGFDLRLDEFETVGNTIRAFASDNATVVIGTSLDPDMNDELRVTVVATGIGMDKRPEITLVTNKQVQQPVMDRYQQHGMAPLTQEQKPVAKVVNDNAPQTAKEPDYLDIPAFLRKQAD
modifications: Alexa Fluor 488 C5 maleimide on the cysteine of the added N-terminal residues AEGCGEL in the labelled form; unlabelled FtsZ also used
notes: FtsZ, E. coli, cloned into a pTB146-derived vector; Present as GTP-dependent treadmilling filaments in the assays; also called Alexa488-FtsZ; FtsZ filaments; source: E. coli BL21, purified (Ni-NTA, His6-SUMO cleaved with Ulp1, polymerisation with CaCl2 and GTP); not shown: His6-SUMO, N-terminal, cleaved; seven residues AEGCGEL for maleimide coupling, N-terminal, kept
B2: FtsZ: E. coli tubulin-like FtsZ forming treadmilling filaments; labelled with Alexa Fluor 488 (protein)
chain: B1 chain
modifications: Alexa Fluor 488 C5 maleimide on the cysteine of the added N-terminal residues AEGCGEL in the labelled form; unlabelled FtsZ also used; left off: His6-SUMO, N-terminal, cleaved | seven residues AEGCGEL

How the values were obtained:
FtsA R286W = molecular target: T1, FtsA R286W; test: dual-colour TIRF microscopy on supported lipid bilayers; Cy5-FtsA WT or R286W (0.1-0.8 µM) and Alexa488-FtsZ (1.25 µM) on DOPC:DOPG bilayers; reaction buffer with 4 mM ATP, 4 mM GTP; conditions: both partners purified
FtsA WT = molecular target: T2, FtsA WT; test: as above; conditions: both partners purified
FtsA R286W (1-405)-6xHis = molecular target: T3, FtsA R286W (1-405)-6xHis; test: dual-colour TIRF microscopy on supported lipid bilayers; Cy5-labelled His-tagged FtsA (0.5-1 µM, washed) attached to bilayers with varied Tris-NTA lipid density; 1.25 µM Alexa488-FtsZ added; conditions: both partners purified
FtsA WT (1-405)-6xHis = molecular target: T4, FtsA WT (1-405)-6xHis; test: as above; conditions: both partners purified
FtsA = conditions: Fig. S2f, intensity after FtsNcyto addition
Method: Subsequently, the chamber was washed 6x with reaction buffer, to remove bulk peptide. To visualize colocalization with either FtsZ or FtsA, either a mix of FtsA and Alexa488-FtsZ or Cy3-FtsA and FtsZ was added. […] The time-lapse videos were recorded for 10 min after the addition, with one frame per 2 s.
Time-lapse videos were first intensity-corrected and contrast-enhanced to avoid bleaching effects and simplify subsequent analysis. To remove contributions of X–Y drift, the videos were processed with the Linear Stack Alignment with SIFT plugin. Proper alignment was checked with the 3TP align plugin (J. A. Parker; Beth Israel Deaconess Medical Center, Boston). Subsequently, regions of interest (ROIs) in the center of the stacks were chosen for colocalization analysis. The Pearson’s correlation coefficient (PCC) was quantified with the Image CorrelationJ 1o plugin. To extract information about the relative ratio of FtsZ/FtsA molecules (slope of linear regression), we also used the Image CorrelationJ 1o plugin. As an output, the plugin provides a scatterplot of FtsZ vs FtsA intensities, to which we fitted a linear slope y=k⋅x+d , where k is the slope and d the offset. The slope was used as an estimate for the ratio of FtsA molecules below FtsZ filaments.

FtsZ = conditions: with FtsNcyto-His and His-tagged FtsA
From the text: coefficients were close to zero and we could not observe complete recovery of the

Row | Molecule | binding result (FtsA R286W) | binding result (FtsA WT) | binding result (FtsA R286W (1-405)-6xHis) | binding result (FtsA WT (1-405)-6xHis) | Mean Intensity Fold Change (FtsA; 0.10 µM) | Mean Intensity Fold Change (FtsA; 0.20 µM) | Mean Intensity Fold Change (FtsA; 0.40 µM) | mean recovery time of FtsZ (FtsZ)
1 | B1 | binds | binds | binds | binds | – | – | – | –
2 | B2 | – | – | – | – | 1.36 | 1.60 | 1.56 | around 9.5 s
